The assay addresses mature KLK4 from recombinant pro-KLK4 expressed in Sf9 cells, activated with thermolysin (human) (UniProt Q9Y5K2). As to the kind of experiment: enzyme inhibition assay.

By Ki is commonly meant a measure of affinity in units of concentration, obtained from inhibition or displacement.

Sequence of UniProt Q9Y5K2 (Q9Y5K2 31-254): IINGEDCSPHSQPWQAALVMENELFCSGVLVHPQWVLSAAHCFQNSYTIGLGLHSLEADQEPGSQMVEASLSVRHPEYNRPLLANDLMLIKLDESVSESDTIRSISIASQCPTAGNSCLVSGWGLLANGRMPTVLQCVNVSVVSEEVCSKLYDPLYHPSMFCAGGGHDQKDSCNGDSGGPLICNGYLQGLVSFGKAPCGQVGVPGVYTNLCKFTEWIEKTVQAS

As for SFTI-FCQR(Asn14), bicyclic (peptide), the Ki turned out to be 0.04 nM. For the substance “SFTI-FCQR(Asn14)[1,14], monocyclic (1,14-acyclic backbone, disulfide-bridged) (peptide)”, the Ki amounted to 3.48 nM.

For the origin of these results see paper doi:10.1101/570390.
